Three substances from PMC5726854 can be followed below.

Experiment [1] concerns the target E. coli ribosomes (E. coli). Kind of experiment: FRAP (diffusion coefficient in living cells); E. coli cytoplasm, 30°C, 0.28 Osm; fraction bound from the effective diffusion coefficient (Equation 1); Kd per binding site from Equation 2 with 660 µM binding sites assumed.
Experiment [2] deals with Hfx. volcanii ribosomes (Haloferax volcanii (endogenous in H1895)). The experiment is described as follows: FRAP (diffusion coefficient in living cells); Hfx. volcanii cytoplasm, 30°C; fraction bound from the effective diffusion coefficient; Kd per binding site with the ribosome concentration assumed as in E. coli.
In experiment [3] the target is L. lactis ribosomes (Lactococcus lactis (endogenous in NZ9000)). Kind of experiment: FRAP (diffusion coefficient in living cells); L. lactis cytoplasm, 30°C; fraction bound from the effective diffusion coefficient; Kd per binding site with the ribosome concentration assumed as in E. coli.

In the case of +25 GFP, in experiment [1], the Kd (usually the constant that tells how readily two partners part at equilibrium) stood at 6.7 µM and the fraction bound amounted to 0.99. Take +25 GFP (expressed in Hfx. volcanii): in experiment [2], the Kd is 155 µM and the fraction bound came out at 0.81. As to +25 GFP (expressed in L. lactis), in experiment [3], the Kd was 65 µM.
